# Values of other authors in paper PMC3166974.
# Tests used:
# [1] = target: SecA (Escherichia coli) (UniProt P10408)
# [2] = target: PKR (Homo sapiens) (UniProt P19525)
Kd [2] [µM],Substance,Kd [1] [µM]
–,SecA (from UniProt P10408),18.6
500,PKR (from UniProt P19525),–
